Experimental data from US12552834 (MIT, dated 2026).
Like-named read-outs stand apart in the source and are kept apart here.

Key:
[1] = target: T1, ENAH EVH1 domain (monomeric, wild type) (human, UniProt Q03173 1-111 (mouse entry)); test: ITC
T1 construct: ENAH residue numbers in the text count from the Met at position 25 of this entry; also called ENAH EVH1 WT; Mena EVH1 WT
Description: (§1) ITC experiments were performed with two replicates using a VP-ITC microcalorimeter (MicroCal LLC). To prepare samples for ITC, 2.5 mL of 100 µM ENAH EVH1 domain and 1 mL of 800 µM-1.2 mM of SUMO-peptide fusions were dialyzed against 2 µL of ITC Buffer (20 mM Hepes pH 7.6, 150 mM NaCl, 1 mM TCEP) at 4° C. overnight. The concentrations of proteins were remeasured after dialysis on the day of experiment. SUMO-peptide was titrated into ENAH EVH1 domain at 25° C. Data analysis and curve fitting were performed with the Origin 7.0 software (OriginLab).

[2] = target: T2, ENAH EVH1 domain with Arg47 mutated to Ala (human, UniProt Q03173 1-111 (mouse entry)); test: BLI, steady state; SUMO-peptide immobilised, EVH1 monomer in solution
T2 construct: also called ENAH R47A; ENAH EVH1 R47A
T2 sequence (Q03173 other isoform, or with tags, fused parts or gaps limits assumed, stated change not applied): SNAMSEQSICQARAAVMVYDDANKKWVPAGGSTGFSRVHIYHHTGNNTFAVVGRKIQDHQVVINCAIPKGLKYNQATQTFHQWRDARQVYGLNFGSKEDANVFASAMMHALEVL
Description: (§2) All BLI experiments were performed with 2 replicates on an Octet Red96 instrument (ForteBio). […] The loaded tips were immersed in a solution of ENAH EVH1 domain at a relevant dilution series in BLI buffer at an orbital shake speed of 1000 rpm and run until the binding signal plateaued. ENAH-bound tips were subsequently placed into BLI buffer only for dissociation and run until the binding signal plateaued. K_D values were obtained through steady state analysis. […] The association phases were then fit to a one-phase binding model in Prism and the equilibrium steady-state binding signal values from that fit were plotted against ENAH concentration and fit to a single-site specific binding model in Prism to obtain dissociation constants. Errors reported are the standard deviation of two replicates.

[3] = target: T1, ENAH EVH1 domain (monomeric, wild type); test: as above
Description: as §2

[4] = target: T1, ENAH EVH1 domain (monomeric, wild type); test: ITC, SUMO-peptide titrated into ENAH EVH1 domain at 25 °C
Description: as §1

[5] = target: T1, ENAH EVH1 domain (monomeric, wild type); test: BLI, steady state; SUMO-peptide immobilised, EVH1 monomer in solution; remark: listed apart in the source
Description: as §2

[6] = target: T1, ENAH EVH1 domain (monomeric, wild type); test: BLI dissociation phase, immobilised SUMO-peptide, ENAH EVH1 domain in solution
[7] = target: T2, ENAH EVH1 domain with Arg47 mutated to …; test: BLI, steady state; SUMO-peptide immobilised, EVH1 monomer in solution; remark: listed apart in the source
Description: as §2

[8] = target: T1, ENAH EVH1 domain (monomeric, wild type); test: as above; remark: listed apart in the source
Description: as §2

[9] = target: T1, ENAH EVH1 domain (monomeric, wild type); test: BLI
Description: as §2

[10] = target: T1, ENAH EVH1 domain (monomeric, wild type); test: BLI, steady state; SUMO-peptide immobilised, EVH1 monomer in solution; remark: listed apart in the source
Description: as §2

T1 sequence (Q03173 other isoform, or with tags, fused parts or gaps limits assumed): as the sequence (Q03173 other isoform, or with tags, fused parts or gaps limits assumed, stated change not applied) above, with A50R counted along it

Row | Binder | -TΔS [1] | ΔG [1] | ΔH [1] | Kd [2] | Kd [3] | Kd [4] | Kd [5] | Kd [10] | also measured
1 | SUMO-ActA (ActA 36-mer peptide fused to SUMO) (biotinylated (BAP tag), Control peptide used in BLI and ITC; also called ActA peptide) peptide: MAGGLNDIFEAQKIEWHEDTGGSSHHHHHHGSGSGSDSEVNQEAKPEVKPEVKPETHINLKVSDGSSEIFFKIKKTTPLRRLMEAFAKRQGKEMDSLTFLYDGIEIQADQTPEDLDMEDNDIIEAHREQIGGGFNAPATSEPSSFEFPPPPTEDELEIIRETASSLDS | -5.21 kcal/mol | -6.99 kcal/mol | -1.78 kcal/mol | 8.02 µM | 5.21 µM | 7.41 µM | 5.21 µM | – | –
2 | LPP 36mer peptide (biotinylated (BAP tag), Tested as a BAP-6xHis-SUMO-peptide fusion in BLI and ITC) peptide: MAGGLNDIFEAQKIEWHEDTGGSSHHHHHHGSGSGSDSEVNQEAKPEVKPEVKPETHINLKVSDGSSEIFFKIKKTTPLRRLMEAFAKRQGKEMDSLTFLYDGIEIQADQTPEDLDMEDNDIIEAHREQIGGSGSGKQPGGEGDFLPPPPPPLDDSSALPSISGNFPPPPPL | -0.504 kcal/mol | -6.94 kcal/mol | -6.44 kcal/mol | 61.9 µM | 4.03 µM | 8.13 µM | 4.03 µM | – | koff [6]: 1.8 s⁻¹; Kd [7]: 61.9 µM; Kd [8]: 4.03 µM
3 | NHSL1 36mer peptide (biotinylated (BAP tag), Tested as a BAP-6xHis-SUMO-peptide fusion in BLI and ITC) peptide: MAGGLNDIFEAQKIEWHEDTGGSSHHHHHHGSGSGSDSEVNQEAKPEVKPEVKPETHINLKVSDGSSEIFFKIKKTTPLRRLMEAFAKRQGKEMDSLTFLYDGIEIQADQTPEDLDMEDNDIIEAHREQIGGSGSGADRSPFLPPPPPVTDCSQGSPLPHSPVFPPPPPEAL | -0.28 kcal/mol | -6.83 kcal/mol | -6.55 kcal/mol | 55.4 µM | 8.56 µM | 9.8 µM | 8.56 µM | – | Kd [7]: 55.4 µM; Kd [8]: 8.56 µM
4 | ABI1-LPP fusion peptide (designed binder, biotinylated (BAP tag), Engineered peptide, tested as a SUMO fusion in BLI) peptide: MAGGLNDIFEAQKIEWHEDTGGSSHHHHHHGSGSGSDSEVNQEAKPEVKPEVKPETHINLKVSDGSSEIFFKIKKTTPLRRLMEAFAKRQGKEMDSLTFLYDGIEIQADQTPEDLDMEDNDIIEAHREQIGGSGSGFDDFPPPPPPPPVDYEDLPSISGNFPPPPPL | – | – | – | – | – | – | – | – | koff [6]: 0.33 s⁻¹; Kd [9]: 760 nM
5 | PCARE 36-residue peptide (PCARE813-848) (biotinylated (BAP tag), Tested in BLI as a biotinylated BAP-6xHis-SUMO-peptide fusion; also called PCARE 36-mer) peptide: MAGGLNDIFEAQKIEWHEDTGGSSHHHHHHGSGSGSDSEVNQEAKPEVKPEVKPETHINLKVSDGSSEIFFKIKKTTPLRRLMEAFAKRQGKEMDSLTFLYDGIEIQADQTPEDLDMEDNDIIEAHREQIGGSGSGAAKSEELSCEMEGNLEHLPPPPMEVLMDKSFASLES | – | – | – | 0.331 µM | 0.192 µM | – | 0.192 µM | – | –
6 | Zyxin 36-mer peptide (biotinylated (BAP tag), Tested as a biotinylated BAP-6xHis-SUMO-peptide fusion) peptide: MAGGLNDIFEAQKIEWHEDTGGSSHHHHHHGSGSGSDSEVNQEAKPEVKPEVKPETHINLKVSDGSSEIFFKIKKTTPLRRLMEAFAKRQGKEMDSLTFLYDGIEIQADQTPEDLDMEDNDIIEAHREQIGGSGSGALGGAFPPPPPPIEESFPPAPLEEEIFPSPPPPPEE | – | – | – | 54.5 µM | 4.79 µM | – | 4.79 µM | – | –
7 | FDDFP8 peptide (biotinylated (BAP tag), ABI1 truncation, tested as a SUMO fusion) peptide: MAGGLNDIFEAQKIEWHEDTGGSSHHHHHHGSGSGSDSEVNQEAKPEVKPEVKPETHINLKVSDGSSEIFFKIKKTTPLRRLMEAFAKRQGKEMDSLTFLYDGIEIQADQTPEDLDMEDNDIIEAHREQIGGSGSGFDDFPPPPPPPP | – | – | – | – | – | – | – | 10.1 µM | fold decrease in affinity on truncation of the flank [9]: 2.5 fold
8 | FP8 peptide (FPPPPPPPP) (biotinylated (BAP tag), ABI1 truncation, tested as a SUMO fusion) peptide: MAGGLNDIFEAQKIEWHEDTGGSSHHHHHHGSGSGSDSEVNQEAKPEVKPEVKPETHINLKVSDGSSEIFFKIKKTTPLRRLMEAFAKRQGKEMDSLTFLYDGIEIQADQTPEDLDMEDNDIIEAHREQIGGSGSGFPPPPPPPP | – | – | – | – | – | – | – | 28.5 µM | fold decrease in affinity on truncation of the flank [9]: 3 fold
9 | FP4S4 peptide (FPPPPSSSS) (biotinylated (BAP tag), Tested as a SUMO fusion) peptide: MAGGLNDIFEAQKIEWHEDTGGSSHHHHHHGSGSGSDSEVNQEAKPEVKPEVKPETHINLKVSDGSSEIFFKIKKTTPLRRLMEAFAKRQGKEMDSLTFLYDGIEIQADQTPEDLDMEDNDIIEAHREQIGGSGSGFPPPPSSSS | – | – | – | – | – | – | – | 114 µM | fold reduction in affinity against … [9]: ~4 fold
